{
  "source": "the RNAGym collection of RNA variant scans (doi:10.7554/elife.80360)",
  "parents": {"B1": {"name": "CPEB3 Ribozyme (parent)", "chain": "GGGGGCCACAGCAGAAGCGUUCACGUCGCGGCCCCUGUCAGAUUCUGGUGAAUCUGCGAAUUCUGCUGU"}},
  "data": [
    {"variants_of": "B1", "experiment": "self-cleavage, relative activity (ratio to wild type); higher = more cleavage; co-transcriptional", "values": [
      {"variant": "GGGGGCCACAGCAGAAGCGUUCACGUCGCGGCCCCUGUCAGAUUCUGGUGGAUCUGCGAAUUCUGCUGC", "self-cleavage": 1.06},
      {"variant": "GGGGGCCACAGCAGAAGCGUUCACGUCGCGGCCCCUGUCAGAUUCUGGUGCUUCUGCGAAUUCUGCUGU", "self-cleavage": 0.864},
      {"variant": "GGGGGCCACAGCAGAAGCGUUCACGUCGCGGCCCCUGUCAGAUUCUGGUUAAUCUGCGAAUUCUGCGGU", "self-cleavage": 1.05},
      {"variant": "GGGGGCCACAGCAGAAGCGUUCACGUCGCGGCCCCUGUCAGAUUCUGGUUAAUCUGCGAAUUCUGCAGU", "self-cleavage": 1.04},
      {"variant": "GGGGGCCACAGCAGAAGCGUUCACGUCGCGGCCCCUGUCAGAUUCUGGUCAAUCUCCGAAUUCUGCUGU", "self-cleavage": 0.456},
      {"variant": "GGGGGCCACAGCAGAAGCGUUCACGUCGCGGCCCCUGUCAGAUUCUGGUCAAUCUGGGAAUUCUGCUGU", "self-cleavage": 0.314},
      {"variant": "GGGGGCCACAGCAGAAGCGUUCACGUCGCGGCCCCUGUCAGAUUCUGGUGGAUCUGCGCAUUCUGCUGU", "self-cleavage": 0.747},
      {"variant": "GGGGGCCACAGCAGAAGCGUUCACGUCGCGGCCCCUGUCAGAUUCUGGUGGAUCUGCGGAUUCUGCUGU", "self-cleavage": 0.963},
      {"variant": "GGGGGCCACAGCAGAAGCGUUCACGUCGCGGCCCCUGUCAGAUUCUGGUUAAUCUGCGAAUCCUGCUGU", "self-cleavage": 0.866},
      {"variant": "GGGGGCCACAGCAGAAGCGUUCACGUCGCGGCCCCUGUCAGAUUCUGGUCAAUCUGCGAAUUCUGCUGC", "self-cleavage": 1.07},
      {"variant": "GGGGGCCACAGCAGAAGCGUUCACGUCGCGGCCCCUGUCAGAUUCUGGUGCAUAUGCGAAUUCUGCUGU", "self-cleavage": 0.582},
      {"variant": "GGGGGCCACAGCAGAAGCGUUCACGUCGCGGCCCCUGUCAGAUUCUGGUUAAUCUCCGAAUUCUGCUGU", "self-cleavage": 0.649},
      {"variant": "GGGGGCCACAGCAGAAGCGUUCACGUCGCGGCCCCUGUCAGAUUCUGGUGGGUCUGCGAAUUCUGCUGU", "self-cleavage": 0.925},
      {"variant": "GGGGGCCACAGCAGAAGCGUUCACGUCGCGGCCCCUGUCAGAUUCUGGUGGAUCAGCGAAUUCUGCUGU", "self-cleavage": 0.87},
      {"variant": "GGGGGCCACAGCAGAAGCGUUCACGUCGCGGCCCCUGUCAGAUUCUGGUAAAUCUGCGAAUUCCGCUGU", "self-cleavage": 0.874},
      {"variant": "GGGGGCCACAGCAGAAGCGUUCACGUCGCGGCCCCUGUCAGAUUCUGGUAAAUCUGCGAAUUCGGCUGU", "self-cleavage": 0.892},
      {"variant": "GGGGGCCACAGCAGAAGCGUUCACGUCGCGGCCCCUGUCAGAUUCUGGUCAAUCUGCGAAUUCUGCAGU", "self-cleavage": 0.955},
      {"variant": "GGGGGCCACAGCAGAAGCGUUCACGUCGCGGCCCCUGUCAGAUUCUGGUCAAUCUGCGAGUUCUGCUGU", "self-cleavage": 0.959},
      {"variant": "GGGGGCCACAGCAGAAGCGUUCACGUCGCGGCCCCUGUCAGAUUCUGGUCAUUCUGCGAAUUCUGCUGU", "self-cleavage": 0.884},
      {"variant": "GGGGGCCACAGCAGAAGCGUUCACGUCGCGGCCCCUGUCAGAUUCUGGUCAAUCUGCGAAUUCAGCUGU", "self-cleavage": 0.792},
      {"variant": "GGGGGCCACAGCAGAAGCGUUCACGUCGCGGCCCCUGUCAGAUUCUGGUGGAUCUGCAAAUUCUGCUGU", "self-cleavage": 0.949},
      {"variant": "GGGGGCCACAGCAGAAGCGUUCACGUCGCGGCCCCUGUCAGAUUCUGGUGCAUCUGCGAAUUCGGCUGU", "self-cleavage": 0.841},
      {"variant": "GGGGGCCACAGCAGAAGCGUUCACGUCGCGGCCCCUGUCAGAUUCUGGUUAAUCUGCGAAUUGUGCUGU", "self-cleavage": 0.844},
      {"variant": "GGGGGCCACAGCAGAAGCGUUCACGUCGCGGCCCCUGUCAGAUUCUGGUGGAUCUGCGAAUUCUGUUGU", "self-cleavage": 0.972},
      {"variant": "GGGGGCCACAGCAGAAGCGUUCACGUCGCGGCCCCUGUCAGAUUCUGGUGGAUCUGCGAAUUCUGGUGU", "self-cleavage": 0.84},
      {"variant": "GGGGGCCACAGCAGAAGCGUUCACGUCGCGGCCCCUGUCAGAUUCUGGUGGAUCUGCGAAUUCUGAUGU", "self-cleavage": 0.875},
      {"variant": "GGGGGCCACAGCAGAAGCGUUCACGUCGCGGCCCCUGUCAGAUUCUGGUUAGUCUGCGAAUUCUGCUGU", "self-cleavage": 0.976},
      {"variant": "GGGGGCCACAGCAGAAGCGUUCACGUCGCGGCCCCUGUCAGAUUCUGGUUAAUCUGCGAAUUCGGCUGU", "self-cleavage": 0.864},
      {"variant": "GGGGGCCACAGCAGAAGCGUUCACGUCGCGGCCCCUGUCAGAUUCUGGUUAAUCUGCGAAUUCCGCUGU", "self-cleavage": 0.947},
      {"variant": "GGGGGCCACAGCAGAAGCGUUCACGUCGCGGCCCCUGUCAGAUUCUGGUUAAUCUGCGACUUCUGCUGU", "self-cleavage": 0.382},
      {"variant": "GGGGGCCACAGCAGAAGCGUUCACGUCGCGGCCCCUGUCAGAUUCUGGUUAAUCUGCGAGUUCUGCUGU", "self-cleavage": 0.973},
      {"variant": "GGGGGCCACAGCAGAAGCGUUCACGUCGCGGCCCCUGUCAGAUUCUGGUGGAUCUGGGAAUUCUGCUGU", "self-cleavage": 0.322},
      {"variant": "GGGGGCCACAGCAGAAGCGUUCACGUCGCGGCCCCUGUCAGAUUCUGGUUAAUCUGCGAAUUCUCCUGU", "self-cleavage": 0.73},
      {"variant": "GGGGGCCACAGCAGAAGCGUUCACGUCGCGGCCCCUGUCAGAUUCUGGUUAAUCUGCGAAUUCUUCUGU", "self-cleavage": 0.809},
      {"variant": "GGGGGCCACAGCAGAAGCGUUCACGUCGCGGCCCCUGUCAGAUUCUGGUCAAUCUGCGAAUUCUGCUAU", "self-cleavage": 0.992},
      {"variant": "GGGGGCCACAGCAGAAGCGUUCACGUCGCGGCCCCUGUCAGAUUCUGGUGGAUCUCCGAAUUCUGCUGU", "self-cleavage": 0.69},
      {"variant": "GGGGGCCACAGCAGAAGCGUUCACGUCGCGGCCCCUGUCAGAUUCUGGUGGAUCUACGAAUUCUGCUGU", "self-cleavage": 0.91},
      {"variant": "GGGGGCCACAGCAGAAGCGUUCACGUCGCGGCCCCUGUCAGAUUCUGGUUAACCUGCGAAUUCUGCUGU", "self-cleavage": 0.909},
      {"variant": "GGGGGCCACAGCAGAAGCGUUCACGUCGCGGCCCCUGUCAGAUUCUGGUUAAGCUGCGAAUUCUGCUGU", "self-cleavage": 0.871}
    ]}
  ]
}
